What was measured:
[1] = molecular target: T1, Flag tagged recombinant DLL3 (Adipogen) (Homo sapiens (Human), UniProt Q9NYJ7 27-492); experiment: flow cytometry, percent of T cells that recognise recombinant DLL3, Donor 772
T1 construct: Bought reagent; also called Flag-DLL3
T1 sequence: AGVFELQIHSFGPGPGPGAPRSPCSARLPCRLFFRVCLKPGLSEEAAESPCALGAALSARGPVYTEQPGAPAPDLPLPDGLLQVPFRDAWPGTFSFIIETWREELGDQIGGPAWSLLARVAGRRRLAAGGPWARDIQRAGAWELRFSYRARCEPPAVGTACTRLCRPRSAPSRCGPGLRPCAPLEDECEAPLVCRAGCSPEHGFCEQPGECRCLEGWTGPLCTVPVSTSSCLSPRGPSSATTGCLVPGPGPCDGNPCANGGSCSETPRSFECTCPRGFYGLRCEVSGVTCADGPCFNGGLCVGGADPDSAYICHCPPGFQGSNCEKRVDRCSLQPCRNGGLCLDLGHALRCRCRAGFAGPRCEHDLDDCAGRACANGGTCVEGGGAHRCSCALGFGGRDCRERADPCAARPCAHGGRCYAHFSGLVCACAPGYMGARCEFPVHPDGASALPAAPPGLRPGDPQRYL
Procedure: (§1) To determine the percentage of T cells that were successfully transduced with DLL3 CAR, T cells were first incubated with 1 ug/ml Flag tagged recombinant DLL3 (Adipogen) in PBS+1% BSA for 20 minutes at 4 C.

[2] = molecular target: T1, Flag tagged recombinant DLL3 (Adipogen); experiment: flow cytometry, primary T cells with the CAR, 1 ug/ml Flag tagged recombinant DLL3, PE anti-Flag
Procedure: as §1

[3] = molecular target: T1, Flag tagged recombinant DLL3 (Adipogen); experiment: flow cytometry, percent of T cells that recognise recombinant DLL3, Donor 503
Procedure: as §1

[4] = molecular target: T2, human DLL3 extracellular domain (ECD) with C-terminal 8xHis tag and Avi tag (human, UniProt Q9NYJ7 27-492); experiment: SPR (Biacore), 37 C; IgG captured on chip, human DLL3 ECD in solution; 1:1 Langmuir fit
T2 construct: extracellular domain; Expressed in Expi293, purified by IMAC and SEC; also called huDLL3; not shown: Avi tag
T2 sequence: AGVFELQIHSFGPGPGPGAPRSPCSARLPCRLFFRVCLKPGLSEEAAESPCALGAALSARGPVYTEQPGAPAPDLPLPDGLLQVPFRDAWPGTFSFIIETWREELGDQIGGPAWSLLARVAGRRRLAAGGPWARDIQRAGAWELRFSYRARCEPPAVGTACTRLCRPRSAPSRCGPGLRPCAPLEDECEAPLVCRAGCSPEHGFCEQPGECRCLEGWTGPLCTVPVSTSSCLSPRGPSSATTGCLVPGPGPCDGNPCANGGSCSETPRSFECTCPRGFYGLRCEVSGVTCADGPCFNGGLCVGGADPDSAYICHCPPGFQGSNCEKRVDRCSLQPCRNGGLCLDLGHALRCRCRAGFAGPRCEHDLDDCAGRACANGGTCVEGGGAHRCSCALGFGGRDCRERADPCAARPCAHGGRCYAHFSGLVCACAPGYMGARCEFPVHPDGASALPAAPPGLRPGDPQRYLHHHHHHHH

B1: 10G1-K (other)
CAR: EVQLLESGGGLVQPGGSLRLSCAASGFTFSSYAMNWVRQAPGKGLEWVSTISGSGGSTYYADSVKGRFTISRDNSKNTLYLQMNSLRAEDTAVFYCAIDPEYYDILTGGDYWGQGTLVTVSSGGGGSGGGGSGGGGGSGGGGSDIQMTQSPSAMSASVGDRVTITCRASQGISNYLAWFQQKPGKVPKRLIYAASSLQSGVPSRFSGSGSGTEFTLTISSLQPEDFATYFCLQHDSFPLTFGGGTKVEIKTTTPAPRPPTPAPTIASQPLSLRPEACRPAAGGAVHTRGLDFACDIYIWAPLAGTCGVLLLSLVITKRGRKKLLYIFKQPFMRPVQTTQEEDGCSCRFPEEEEGGCELRVKFSRSADAPAYQQGQNQLYNELNLGRREEYDVLDKRRGRDPEMGGKPRRKNPQEGLYNELQKDKMAEAYSEIGMKGERRRGKGHDGLYQGLSTATKDTYDALHMQALPPR
notes: also called anti-DLL3 CAR with 10G1-K scFv, on primary T cells
Transduction efficiency [1]: 33.7%
Rec-DLL3 gate, percent of live CD3+ cells [2]: 51.8%
Transduction efficiency [3]: 53.7%

B2: 4H8 (other)
CAR: QVQLQQSGPGLVKPSQTLSLTCAISGDSVSSNSATWNWIRQSPSRGLEWLGRTYYRSKWYDDYAVSVKSRITINPDTSKNHLSLHLNSVTPEDTAVYYCAGGGLVGAPDGFDVWGQGTMVTVSSGGGGSGGGGSGGGGSGGGGSQSVLTQPPSASGTPGQRVTISCSGSSSNIGSDPVNWYQQLPGTAPKLLIYSNNQRPSGVPDRFSGSKSGTSASLAISGLQSEDEADYYCSAWDDSLNGYVFGTGTKVTVLTTTPAPRPPTPAPTIASQPLSLRPEACRPAAGGAVHTRGLDFACDIYIWAPLAGTCGVLLLSLVITKRGRKKLLYIFKQPFMRPVQTTQEEDGCSCRFPEEEEGGCELRVKFSRSADAPAYQQGQNQLYNELNLGRREEYDVLDKRRGRDPEMGGKPRRKNPQEGLYNELQKDKMAEAYSEIGMKGERRRGKGHDGLYQGLSTATKDTYDALHMQALPPR
notes: also called anti-DLL3 CAR with 4H8 scFv, on primary T cells
Transduction efficiency [1]: 27.2%
Rec-DLL3 gate, percent of live CD3+ cells [2]: 77.9%
Transduction efficiency [3]: 39.3%

B3: 11A3 (other)
CAR: QVQLQESGPGLVKPSETLSLTCTVSSDSISNYYWSWIRQPPGKGLEWISYIYYSGITNYNPSLKSRVTISVDTSKNQFSLKLSSVTAADTAVYYCARITVTGFYFDYWGQGTLVTVSSGGGGSGGGGSGGGGSGGGGSEIVLTQSPGTLSLSPGERATLSCRASQSISRSYLAWYQQKPGQAPRHLIYGASSRATGIPDRFSGSGSGTDFILTISRLEPEDFAVYYCQQYDTSPLTFGGGTKVEIKTTTPAPRPPTPAPTIASQPLSLRPEACRPAAGGAVHTRGLDFACDIYIWAPLAGTCGVLLLSLVITKRGRKKLLYIFKQPFMRPVQTTQEEDGCSCRFPEEEEGGCELRVKFSRSADAPAYQQGQNQLYNELNLGRREEYDVLDKRRGRDPEMGGKPRRKNPQEGLYNELQKDKMAEAYSEIGMKGERRRGKGHDGLYQGLSTATKDTYDALHMQALPPR
notes: also called anti-DLL3 CAR with 11A3 scFv, on primary T cells
Transduction efficiency [1]: 20%
Rec-DLL3 gate, percent of live CD3+ cells [2]: 57.3%
Transduction efficiency [3]: 42.1%

B4: 9H12-K (other)
CAR: QVQLVQSGAEVKKPGASVKVSCKASGYTFTGYSIHWVRQAPGQGLEWMGWINPNSGGTFYAQKFQGRVTMTRDTSISTVYMELSRLRSDDTAVYYCARDGWGDYYYYGLDVWGQGTTVTVSLGGGGSGGGGSGGGGSGGGGSDIQMTQSPSSVSASVGDRVTITCRASQDISSWLAWYQQKPGKAPKLLIYTASSLQGGVPSRFSGSGSGTDFTLTISSLQPEDLATYSCQQANVFPYTFGQGTKLEIKTTTPAPRPPTPAPTIASQPLSLRPEACRPAAGGAVHTRGLDFACDIYIWAPLAGTCGVLLLSLVITKRGRKKLLYIFKQPFMRPVQTTQEEDGCSCRFPEEEEGGCELRVKFSRSADAPAYQQGQNQLYNELNLGRREEYDVLDKRRGRDPEMGGKPRRKNPQEGLYNELQKDKMAEAYSEIGMKGERRRGKGHDGLYQGLSTATKDTYDALHMQALPPR
notes: also called anti-DLL3 CAR with 9H12-K scFv, on primary T cells
Transduction efficiency [1]: 35.6%
Rec-DLL3 gate, percent of live CD3+ cells [2]: 56.3%
Transduction efficiency [3]: 41.4%

B5: anti-DLL3 antibody 3F2 (IgG) (antibody, V domains shown)
VH: QVQLQESGPGLVKPSGTLSLTCAVSGGSISSNNWWSWVRQPPGKGLEWIGDIHHSGSTNYKPSLKSRVTISVDKSKNQFSLNLISVTAADTAVYYCAREAGGYFDYWGQGILVTVSS
VL: DIQMTQSPSTLSASVGDRVTITCRASQSISSWLAWYQQKPGKAPKLLISKASSLESGVPSRFSGSGSGPEFTLTISSLQPADFATYYCQQYNSYSTFGQGTKLEIK
notes: Full-length monoclonal antibody (IgG)
Kd [4]: 14.8 nM

B6: anti-DLL3 antibody 6F8 (IgG) (antibody, V domains shown)
VH: QVQLVQSGAEVKKPGSSVKVSCKASGGTFTNYCISWVRQAPGQGLEWMGGIIPIFGTTNYAQTFQGRVTITADKSTSTAYMELSSLRSEDTAVYYCARDNGDRYYYDMDVWGQGTTVTVSS
VL: QSVLTQPPSVSAAPGQKVTISCSGSSSNIGNNYVSWYQQLPGTAPKLLIYDNNKRPSGIPDRFSGSKSGTSATLGITGLQTGDEADYYCGTWDSSLSAVVFGGGTKLTVL
Kd [4]: 26.5 nM

B7: anti-DLL3 antibody 2D3 (IgG) (antibody, V domains shown)
VH: QVQLQESGPGLVKPSETLSLTCTVSDNSISNYYWSWIRQPPGKGLEWIAYIYYSGTTNYNPSLKSRVTISLDTSKNQFSLKLSSVTAADTAVYYCARLFNWGFAFDIWGQGTMVTVSS
VL: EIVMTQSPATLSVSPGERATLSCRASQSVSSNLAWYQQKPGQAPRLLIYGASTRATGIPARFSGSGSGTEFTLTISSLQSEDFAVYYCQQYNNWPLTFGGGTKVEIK
notes: as for B5
Kd [4]: 5.47 nM

B8: anti-DLL3 antibody 8E11 (IgG) (antibody, V domains shown)
VH: QVQLQESGPGLVKPSETLSLTCTVSGDSISNYYWTWIRQPPGKGLEWIGYIYYSGTTNSNPSLKSRVTVSLDTSKSQFSLNLSSVTAADTAVYYCARVFNRGFAFDIWGQGTMVTVSS
VL: EIVLTQSPGTLSLSPGERATLSCRASQRISNTYLAWYQQKPGQAPRLLIYGASSRATGIPDRFSGSGSGTDFTLTISRLEPEDFAAYYCQQYDTSPLTFGGGTKVEIK
notes: as for B5
Kd [4]: 5.86 nM

B9: anti-DLL3 antibody 9D3 (IgG) (antibody, V domains shown)
VH: QVQLQESGPGLVKPSETLSLTCTVSDDSISNYYWSWIRQPPGKGLEWIGYIFYSGTTNHNPSLKSRLTISLDKAKNQFSLRLSSVTAADTAVYYCARVFNWGFAFDIWGQGTMVTVSS
VL: EIVLTQSPGTLSLSPGERATLSCRASQRISRTYLAWYQQKPGQAPRLLIYGASSRATGIPDRFTGSGSGTDFTLTISRLEPEDFAVYYCQQYGTSPLTFGGGTKVEIN
notes: as for B5
Kd [4]: 21.1 nM

B10: anti-DLL3 antibody 2A6.C5 (IgG) (antibody, V domains shown)
VH: QVQLQESGPGLVKPSETLSLTCTVSNVSISSYYWSWIRQPPGKGLEWIGYIYYSGTTNYNPSLKSRVTMSVDTSKNQFSLKLSSVTAADTAVYFCARLSNWGFAFDIWGQGTMVTFSS
VL: EIVLTQSPGTLSLSPGERATLSCRASQTISSSYLAWYQQKPGQAPRLLIYGASSRATGIPDRFSGSGSGTEFTLTISRLEPEDFAVYYCQQYGWSPITFGQGTRLEIK
notes: as for B5
Kd [4]: 23.4 nM

B11: anti-DLL3 antibody 2G1 (IgG) (antibody, V domains shown)
VH: QLQLQESGPGLVKPSETLSLTCTVSGGSISSSSYYWGWIRQPPGKGLEWIGSIYYSGNIYHNPSLKSRVSISVDTSKNQFSLRLSSVTAADTAVYYCAREIIVGATHFDYWGQGTLVTVSS
VL: AIQMTQSPSSLSASVGDRVTITCRASQGIRNDLGWYQQKPGKAPELLIYAASSLQSGVPSRFSGSGSGTDFTLTISSLQPEDFATYYCLQDYNYPLTFGPGTKVDIK
notes: as for B5
Kd [4]: 38.1 nM

B12: anti-DLL3 antibody 4H8 (IgG) (antibody, V domains shown)
VH: QVQLQQSGPGLVKPSQTLSLTCAISGDSVSSNSATWNWIRQSPSRGLEWLGRTYYRSKWYDDYAVSVKSRITINPDTSKNHLSLHLNSVTPEDTAVYYCAGGGLVGAPDGFDVWGQGTMVTVSS
VL: not shown
notes: as for B5
Kd [4]: 18.5 nM

B13: anti-DLL3 antibody 17A2 (IgG) (antibody, V domains shown)
VH: QVQLQESGPGLVKPSGTLSLTCVVFGDSISSSNWWSWVRQPPGKGLEWIGEVFHSGSTNYNPSLKSRVTISVDKSKNQFSLKLSSVTAADTAVYYCARAAVAGALDYWGQGTLVTVSS
VL: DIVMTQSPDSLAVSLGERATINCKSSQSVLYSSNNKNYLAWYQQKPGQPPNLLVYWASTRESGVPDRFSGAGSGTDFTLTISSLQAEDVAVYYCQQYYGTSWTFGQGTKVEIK
notes: as for B5
Kd [4]: 5.49 nM

B14: anti-DLL3 antibody 11A3 (IgG) (antibody, V domains shown)
VH: QVQLQESGPGLVKPSETLSLTCTVSSDSISNYYWSWIRQPPGKGLEWISYIYYSGITNYNPSLKSRVTISVDTSKNQFSLKLSSVTAADTAVYYCARITVTGFYFDYWGQGTLVTVSS
VL: EIVLTQSPGTLSLSPGERATLSCRASQSISRSYLAWYQQKPGQAPRHLIYGASSRATGIPDRFSGSGSGTDFILTISRLEPEDFAVYYCQQYDTSPLTFGGGTKVEIK
notes: as for B5
Kd [4]: 4.8 nM

B15: anti-DLL3 antibody 7F9 (IgG) (antibody, V domains shown)
VH: EVQLVESGGGLVQPGGSLRLSCAASGFTFSSHDMHWVRQATGKGLEWVSAIGIAGDTYYSGSVKGRFTISRENAKNSLYLQMNSLRAGDTAVYYCARANWGEGAFDIWGQGTMVTVSS
VL: DIQMTQSPSSLSASVGDRVTITCRASQGISDYLAWYQQKPGKIPKLLIYAASTLQSGVPSRFSGSGSGTDFTLTISSLQPEDVATYYCQKYNSVPLTFGGGTKVEIK
notes: as for B5
Kd [4]: 12.7 nM

From US20230287120A1 (ALLOGENE THERAPEUTICS, published 2023)
